Test system: Cc1c(F)c(N2CCNC(C)C2)cc2c1c(=O)c(C(=O)O)cn2C1CC1
Experiment: TP_TRANSPORTER: transepithelial transport (basal to apical) in Caco-2 cells
Assay type: functional, cell-based

Q: Which Km does the source give for “ATP-dependent translocase ABCB1 (Homo sapiens)” here?
A: Its Km is 580 µM.
